Measurements reported in patent US8080523.
pKd: −log10 of the molar value. Like-named read-outs stand apart in the source and are kept apart here.

Experiments:
[1] = molecular target: Kv1.3 (cloned) (UniProt P16390)
[2] = molecular target: Kv1.2; test: patch-clamp, block of channel current
[3] = molecular target: Kv1.6; test: patch-clamp, block of channel current
[4] = molecular target: Kv3.2; test: patch-clamp, block of channel current
[5] = molecular target: Kv1.1 (UniProt P16388)
[6] = molecular target: Kv1.3 (cloned) (UniProt P16390); remark: listed apart in the source
[7] = molecular target: Kv1.2; test: patch-clamp, ratio of Kd values; reference margatoxin on Kv1.3
[8] = molecular target: Kv1.6; test: as above
[9] = molecular target: Kv3.2; test: as above
[10] = molecular target: Kv1.1 (Mus musculus (Mouse)) (UniProt P16388); test: patch-clamp, ratio of Kd values; reference ShK(L6) on Kv1.3
Chain of Kv1.1 (Mus musculus (Mouse)) (P16388 whole entry): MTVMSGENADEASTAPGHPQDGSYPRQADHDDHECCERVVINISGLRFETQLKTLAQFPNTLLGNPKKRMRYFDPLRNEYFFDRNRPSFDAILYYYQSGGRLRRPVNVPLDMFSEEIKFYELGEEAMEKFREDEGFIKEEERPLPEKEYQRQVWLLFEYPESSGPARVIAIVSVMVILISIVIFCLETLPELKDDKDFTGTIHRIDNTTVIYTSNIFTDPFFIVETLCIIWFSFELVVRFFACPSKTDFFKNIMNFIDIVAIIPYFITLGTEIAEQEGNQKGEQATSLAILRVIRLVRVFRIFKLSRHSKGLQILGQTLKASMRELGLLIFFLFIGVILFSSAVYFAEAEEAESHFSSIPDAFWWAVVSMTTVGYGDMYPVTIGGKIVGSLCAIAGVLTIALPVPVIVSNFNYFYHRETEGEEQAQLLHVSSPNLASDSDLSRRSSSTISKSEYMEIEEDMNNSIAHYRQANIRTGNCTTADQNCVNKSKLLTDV

Chain of Kv3.2 (P22462 whole entry): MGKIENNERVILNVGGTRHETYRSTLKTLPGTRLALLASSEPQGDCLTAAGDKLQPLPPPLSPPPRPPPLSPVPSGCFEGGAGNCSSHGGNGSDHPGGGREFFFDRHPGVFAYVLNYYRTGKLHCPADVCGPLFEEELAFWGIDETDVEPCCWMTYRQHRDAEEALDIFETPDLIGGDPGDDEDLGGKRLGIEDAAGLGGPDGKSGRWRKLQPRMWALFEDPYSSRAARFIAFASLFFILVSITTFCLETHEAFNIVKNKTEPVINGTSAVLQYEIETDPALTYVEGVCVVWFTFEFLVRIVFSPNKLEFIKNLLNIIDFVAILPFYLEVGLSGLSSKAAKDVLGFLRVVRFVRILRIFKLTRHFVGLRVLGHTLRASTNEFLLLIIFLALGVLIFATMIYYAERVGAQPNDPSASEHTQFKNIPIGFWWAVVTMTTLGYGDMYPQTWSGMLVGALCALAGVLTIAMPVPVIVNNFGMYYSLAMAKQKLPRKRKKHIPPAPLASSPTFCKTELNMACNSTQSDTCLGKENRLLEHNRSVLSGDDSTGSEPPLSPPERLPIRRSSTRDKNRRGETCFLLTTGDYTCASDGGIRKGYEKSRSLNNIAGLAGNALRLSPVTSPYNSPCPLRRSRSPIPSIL
Chain of Kv1.6 (P17658 whole entry): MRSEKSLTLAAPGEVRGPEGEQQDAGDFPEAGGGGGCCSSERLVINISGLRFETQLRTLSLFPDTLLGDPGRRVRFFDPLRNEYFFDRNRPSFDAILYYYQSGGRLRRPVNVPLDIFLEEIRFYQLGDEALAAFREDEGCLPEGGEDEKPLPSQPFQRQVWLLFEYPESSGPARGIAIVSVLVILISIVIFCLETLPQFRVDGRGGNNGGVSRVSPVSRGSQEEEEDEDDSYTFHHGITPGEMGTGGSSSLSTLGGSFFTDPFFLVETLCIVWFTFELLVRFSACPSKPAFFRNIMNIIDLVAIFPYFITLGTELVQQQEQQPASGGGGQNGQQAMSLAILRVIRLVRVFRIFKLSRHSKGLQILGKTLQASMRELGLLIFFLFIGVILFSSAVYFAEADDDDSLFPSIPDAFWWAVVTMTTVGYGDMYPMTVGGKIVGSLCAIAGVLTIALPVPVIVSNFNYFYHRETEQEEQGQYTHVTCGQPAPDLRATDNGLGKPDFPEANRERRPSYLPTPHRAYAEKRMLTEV
Chain of Kv1.2 (P63142 whole entry): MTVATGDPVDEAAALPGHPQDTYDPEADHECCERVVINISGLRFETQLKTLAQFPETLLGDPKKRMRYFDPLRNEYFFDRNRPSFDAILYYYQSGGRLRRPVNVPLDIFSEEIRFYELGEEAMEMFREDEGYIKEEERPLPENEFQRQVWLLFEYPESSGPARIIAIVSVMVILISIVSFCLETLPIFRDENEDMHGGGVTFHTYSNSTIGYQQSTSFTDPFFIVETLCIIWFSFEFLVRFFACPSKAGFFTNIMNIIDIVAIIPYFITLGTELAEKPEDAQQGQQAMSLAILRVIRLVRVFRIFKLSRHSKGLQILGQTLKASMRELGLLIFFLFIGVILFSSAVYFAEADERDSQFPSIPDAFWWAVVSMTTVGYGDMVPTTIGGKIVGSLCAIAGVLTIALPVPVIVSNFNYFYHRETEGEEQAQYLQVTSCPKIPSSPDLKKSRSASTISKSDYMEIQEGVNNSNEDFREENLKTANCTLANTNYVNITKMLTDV
Chain of Kv1.1 (P16388 whole entry): as the sequence (P16388 whole entry) above

Substance: ShK(D5)
- pKd [1]: 8.96

Substance: ShK toxin (peptide)
- pKd [2]: 8.00
- pKd [3]: 9.70
- pKd [4]: 8.30

Substance: ShK-F6CA
- pKd [5]: 8.40

Substance: ShK(L6)
- pKd [6]: 11.00

Substance: Margatoxin (from UniProt P40755 1-39) (peptide)
- pKd [2]: 9.28
- pKd [3]: < 7.00
- pKd [4]: < 7.00
- fold selectivity for Kv1.3 over this channel [7]: 5 fold
- fold selectivity for Kv1.3 over this channel [8]: > 1000 fold
- fold selectivity for Kv1.3 over this channel [9]: > 1000 fold

Substance: ShK(L6) (peptide)
- fold selectivity for Kv1.3 over this channel [10]: 11 fold
